Measured values: paper PMC11786515, “CitGATA7 interact with histone acetyltransferase CitHAG28 to promote citric acid degradation by regulating the glutamine synthetase pathway in citrus”

T1: CitGATA7 (Citrus, UniProt A0ACB8JKI3 1-185)
T1 sequence: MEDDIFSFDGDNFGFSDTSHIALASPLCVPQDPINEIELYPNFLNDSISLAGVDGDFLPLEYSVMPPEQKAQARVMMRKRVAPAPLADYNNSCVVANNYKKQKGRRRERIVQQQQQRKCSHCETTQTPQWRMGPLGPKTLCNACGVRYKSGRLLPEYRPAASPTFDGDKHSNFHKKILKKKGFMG


What was measured:
CitGATA7 [1] = target: T1, CitGATA7; assay: EMSA; attenuated dose-dependently by unlabeled WT probe; LightShift Chemiluminescent EMSA kit (Thermo), manufacturer's instructions; buffer, salt, pH and temperature not stated; settings: protein: recombinant; tags: His (pET-32a); label: 3'-biotin (both strands); blunt
CitGATA7 [2] = target: T1, CitGATA7; assay: EMSA; LightShift Chemiluminescent EMSA kit (Thermo), manufacturer's instructions; buffer, salt, pH and temperature not stated; settings: protein: recombinant; tags: His (pET-32a); label: 3'-biotin (both strands); blunt

Binder	binding result (CitGATA7 [1])	binding result (CitGATA7 [2])
CitIDH1 promoter probe WT (dsDNA) DNA 1: CATTAAATTCCACATCATCTAATATG DNA 2: CATATTAGATGATGTGGAATTTAATG	binds	
CitGS1 promoter probe WT (dsDNA) DNA 1: GCACACCATCTCGATCAGGTGGTAATTTTG DNA 2: CAAAATTACCACCTGATCGAGATGGTGTGC	binds	
CitACO3 promoter probe WT (dsDNA) DNA 1: TCCCATAAAAAAAGATCATAATAATAAAAG DNA 2: CTTTTATTATTATGATCTTTTTTTATGGGA	binds	
CitGS1 promoter probe mutant (dsDNA) DNA 1: GCACACCATCTCAAAAAGGTGGTAATTTTG DNA 2: CAAAATTACCACCTTTTTGAGATGGTGTGC		no binding
CitACO3 promoter probe mutant (dsDNA) DNA 1: TCCCATAAAAAACCCCCCTAATAATAAAAG DNA 2: CTTTTATTATTAGGGGGGTTTTTTATGGGA		no binding
CitIDH1 promoter probe mutant (dsDNA) DNA 1: CATTAAATTCCATTTTTTCTAATATG DNA 2: CATATTAGAAAAAATGGAATTTAATG		no binding
